Assay results from article PMC4416881, “Regulation of Active DNA Demethylation by a Methyl-CpG-Binding Domain Protein in Arabidopsis thaliana” (PLoS Genetics, 2015).

T1: MBP-IDL1 (Arabidopsis thaliana, UniProt Q9SYQ0 1-463)
T1 construct: IDL1, Arabidopsis thaliana, AT1G20870; source: E. coli, fixed to an amylose resin; not shown: MBP, N-terminal, kept
T1 sequence (looked up): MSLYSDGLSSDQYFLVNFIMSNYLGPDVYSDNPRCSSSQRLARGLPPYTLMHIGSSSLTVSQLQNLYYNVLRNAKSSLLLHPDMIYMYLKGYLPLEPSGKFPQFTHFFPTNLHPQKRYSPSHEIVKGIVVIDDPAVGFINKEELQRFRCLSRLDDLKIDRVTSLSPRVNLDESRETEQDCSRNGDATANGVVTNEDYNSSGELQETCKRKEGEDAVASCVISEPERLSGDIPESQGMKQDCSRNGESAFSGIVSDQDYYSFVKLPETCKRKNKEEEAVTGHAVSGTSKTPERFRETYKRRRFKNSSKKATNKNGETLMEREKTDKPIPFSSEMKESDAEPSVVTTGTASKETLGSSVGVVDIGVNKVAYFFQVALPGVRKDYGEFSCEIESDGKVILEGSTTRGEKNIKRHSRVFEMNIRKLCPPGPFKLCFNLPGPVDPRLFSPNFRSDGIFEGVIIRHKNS

T2: His-IDL1 (Arabidopsis thaliana, UniProt Q9SYQ0 1-463)
T2 construct: IDL1, Arabidopsis thaliana, AT1G20870; detected with antibodies against the His6 tag; also called His-tagged IDL1; source: E. coli, purified; not shown: His6, N-terminal, kept
T2 sequence (looked up): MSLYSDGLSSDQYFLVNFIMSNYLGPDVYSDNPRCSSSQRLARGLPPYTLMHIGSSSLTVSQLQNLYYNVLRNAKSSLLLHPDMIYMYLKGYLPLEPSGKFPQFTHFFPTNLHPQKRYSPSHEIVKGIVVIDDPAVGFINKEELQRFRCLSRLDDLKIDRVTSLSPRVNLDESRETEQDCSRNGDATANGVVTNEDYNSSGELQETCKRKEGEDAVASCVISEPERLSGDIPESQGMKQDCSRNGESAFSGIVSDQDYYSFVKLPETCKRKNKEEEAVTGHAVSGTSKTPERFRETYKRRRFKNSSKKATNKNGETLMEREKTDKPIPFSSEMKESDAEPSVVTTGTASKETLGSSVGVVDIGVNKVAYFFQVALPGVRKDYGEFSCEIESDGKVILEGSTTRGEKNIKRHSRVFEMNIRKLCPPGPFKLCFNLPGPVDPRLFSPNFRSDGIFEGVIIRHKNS

B1: MBP-IDM2 (natural protein, Arabidopsis thaliana, UniProt Q8RWL4 1-349, looked up)
chain: MSDTMPEIVSPLVAENSQEQEESVLISLDIEEDKLFLLHFIIGTYFGPDLRKQHHRPKQSAFQIQALKNVVVDELSGSLMKRAELERVYYHIIRNVDPSLVMKPKKLREYFNAKRNDSNRDYPLFVDLFPRKLHPETHVRHKFKFIRSIVFINDPDTSCMREECVARFKRLTGLDSFALSLSVDVTKSNGVVAANEVKVEIDESVEPVKEDNAGTCTSGEESDVAAKPEVKSEAHGGLMVGLMDIGECDDAYLFRVSLPGVKRDERYFSCEVEDNGKVLVRGVTTTGGKRVKRYSHVFEMQTRSLCPPGNFSVSFRLPGPVHPHEFSGNFGTDGILEGVVMKNLQKQTV
notes: IDM2, Arabidopsis thaliana, AT1G54840; source: E. coli, fixed to an amylose resin; not shown: MBP, N-terminal, kept

What was measured:
Assay in all cases: pull-down; MBP fusion from E. coli fixed to amylose resin, incubated with His-tagged protein purified from E. coli; immunoblot against His6 tag
Settings in all cases: both partners purified
MBP-IDL1 = target: T1, MBP-IDL1
MBP-IDM2 = target: B1
His-IDL1 = target: T2, His-IDL1

binding result (MBP-IDL1)	binding result (MBP-IDM2)	binding result (His-IDL1)	Binder
binds	binds	–	His-MBD7 (natural protein, Arabidopsis thaliana, UniProt Q9FJF4 1-306, looked up, MBD7, Arabidopsis thaliana, AT5G59800; detected with antibodies against the His6 tag; also called His-tagged MBD7; source: E. coli, purified; not shown: His6, N-terminal, kept) MQTRSSSSPSANHRRETQLQIADPTSFCGKIMPGWTVVNRPRSSNNGVVDTYFIEPGTGRQFSSLEAIHRHLAGEVNDRRLTRAGSFFQDKTRVYEGSRTKQDHCGVEYASKGFRLPRGWSVEEVPRKNSHYIDKYYVERKTGKRFRSLVSVERYLRESRNSIEQQLRVLQNRRGHSKDFRLPDGWIVEEKPRRSSSHIDRSYIEPGTGNKFRSMAAVERYLISVGNITLDSVSMVHSERLPLLMNRNGIRFQSEVIDPNPPKKVKWVLTGSGGNMFTANVRGSNVSSLVKHTWSEAFVSLIEDRS
–	–	binds	B1
